± gives the standard deviation of the averaged measurements.

The nature of the data set: total protein half-life in vivo (active degradation + dilution); higher = more stable protein.
Where [1] appears, read: E. coli NCM3722 delta-clpP delta-lon delta-hslV, growth: N-lim chemostat, doubling time 6 h.
Setting [2] is: E. coli NCM3722 delta-clpP, growth: N-lim chemostat, doubling time 6 h.
[3] abbreviates: E. coli NCM3722 delta-lon, growth: N-lim chemostat, doubling time 6 h.
Setting [4] is: E. coli NCM3722 delta-smpB, growth: N-lim chemostat, doubling time 6 h.
Setting [5] is: wild type E. coli NCM3722, growth: C-lim chemostat, doubling time 3 h.
Where [6] appears, read: wild type E. coli NCM3722, growth: C-lim chemostat, doubling time 6 h.
[7] abbreviates: wild type E. coli NCM3722, growth: C-lim chemostat, doubling time 12 h.
[8] abbreviates: wild type E. coli NCM3722, growth: N-lim chemostat, doubling time 6 h.
The mark [9] stands for this setting: wild type E. coli NCM3722, growth: N-lim chemostat, doubling time 12 h.
Where [10] appears, read: wild type E. coli NCM3722, growth: P-lim chemostat, doubling time 12 h.
[11] abbreviates: E. coli NCM3722 delta-hslV, growth: N-lim chemostat, doubling time 6 h.
The mark [12] stands for this setting: wild type E. coli NCM3722, growth: P-lim chemostat, doubling time 6 h.

For “MSHWATFKQTATNLWVTLRHDILALAVFLNGLLIFKTIYGMSVNLLDIFHIKAFSELDLSLLANAPLFMLGVFLVLNSIGLLFRAKLAWAISIILLLIALIYTLHFYPWLKFSIGFCIFTLVFLLILRKDFSHSSAAAGTIFAFISFTTLLFYSTYGALYLSEGFNPRIESLMTAFYFSIETMSTVGYGDIVPVSESARLFTISVIISGITVFATSMTSIFGPLIRGGFNKLVKGNNHTMHRKDHFIVCGHSILAINTILQLNQRGQNVTVISNLPEDDIKQLEQRLGDNADVIPGDSNDSSVLKKAGIDRCRAILALSDNDADNAFVVLSAKDMSSDVKTVLAVSDSKNLNKIKMVHPDIILSPQLFGSEILARVLNGEEINNDMLVSMLLNSGHGIFSDNDELETKADSKESAQK”, the “total protein half-life in vivo” value stood at 5.54 ± 0.5 h under setting [1]; 5.47 h under setting [2]; 5.25 ± 0.22 h under setting [3]; 4.7 ± 0.18 h under setting [4]; 2.43 ± 0.039 h under setting [5]; 4.78 ± 0.82 h under setting [6]. Further, the “total protein half-life in vivo” value under setting [7] was 7.86 h, the “total protein half-life in vivo” value under setting [8] is 4.54 ± 0.47 h, the “total protein half-life in vivo” value under setting [9] turned out to be 9.01 ± 0.45 h and the “total protein half-life in vivo” value under setting [10] turned out to be 9.87 ± 0.24 h.

On to “MTQPLVGKQILIVEDEQVFRSLLDSWFSSLGATTVLAADGVDALELLGGFTPDLMICDIAMPRMNGLKLLEHIRNRGDQTPVLVISATENMADIAKALRLGVEDVLLKPVKDLNRLREMVFACLYPSMFNSRVEEEERLFRDWDAMVDNPAAAAKLLQELQPPVQQVISHCRVNYRQLVAADKPGLVLDIAALSENDLAFYCLDVTRAGHNGVLAALLLRALFNGLLQEQLAHQNQRLPELGALLKQVNHLLRQANLPGQFPLLVGYYHRELKNLILVSAGLNATLNTGEHQVQISNGVPLGTLGNAYLNQLSQRCDAWQCQIWGTGGRLRLMLSAE [P0AEV1]”, for which the “total protein half-life in vivo” value under setting [1] turned out to be 3.97 ± 0.57 h; the “total protein half-life in vivo” value under setting [2] is 3.09 ± 0.13 h; the “total protein half-life in vivo” value under setting [11] stood at 3.094 ± 0.028 h; the “total protein half-life in vivo” value under setting [3] amounted to 3.57 ± 0.32 h; the “total protein half-life in vivo” value under setting [4] came to 2.961 ± 0.028 h; the “total protein half-life in vivo” value under setting [5] came to 2.72 ± 0.33 h. In addition, the “total protein half-life in vivo” value by setting is: under setting [6], 4.34 ± 0.48 h; under setting [7], 8.52 ± 0.76 h; under setting [8], 3.39 ± 0.12 h; under setting [9], 5.16 ± 0.3 h; under setting [12], 5.53 ± 0.37 h; under setting [10], 10.1 ± 0.53 h.

As for “MSQVSLSQQLKEGNLFAEQCPSREVLKHVTSRWGVLILVALREGTHRFSDLRRKIGGVSEKMLAQSLQALEQDGFLNRIAYPVVPPHVEYSLTPLGEQVSEKVAALADWIELNLPEVLAVRDERAA [P0ACN2]”, the “total protein half-life in vivo” value came out at 4.79 h under setting [1]; 2.18 h under setting [3]; 2.12 h under setting [4]; 2.01 h under setting [5]; 3.02 ± 0.26 h under setting [6]; 3.86 h under setting [7].

On to “MNAVTVNDDGLVLRLYIQPKASRDSIVGLHGDEVKVAITAPPVDGQANSHLVKFLGKQFRVAKSQVVIEKGELGRHKQIKIINPQQIPPEIAALIN”, for which the “total protein half-life in vivo” value is 5.38 ± 0.38 h under setting [1]; 4 ± 0.27 h under setting [2]; 4.49 h under setting [11]; 5.14 h under setting [3]; 4.22 h under setting [4]; 2.88 ± 0.76 h under setting [5]. The “total protein half-life in vivo” value reads like this: under setting [6], 5.35 h; under setting [7], 8.02 h; under setting [8], 3.58 h; under setting [9], 6.29 ± 0.45 h; under setting [12], 4.68 ± 0.4 h; under setting [10], 8.89 ± 0.44 h.

For the sequence “MKNWKTSAESILTTGPVVPVIVVKKLEHAVPMAKALVAGGVRVLEVTLRTECAVDAIRAIAKEVPEAIVGAGTVLNPQQLAEVTEAGAQFAISPGLTEPLLKAATEGTIPLIPGISTVSELMLGMDYGLKEFKFFPAEANGGVKALQAIAGPFSQVRFCPTGGISPANYRDYLALKSVLCIGGSWLVPADALEAGDYDRITKLAREAVEGAKL [P0A955]”, the “total protein half-life in vivo” value by setting is: under setting [1], 4.94 ± 0.33 h; under setting [2], 4.33 ± 0.52 h; under setting [11], 4.66 ± 0.37 h; under setting [3], 4.92 ± 0.53 h; under setting [4], 4.3 ± 0.16 h; under setting [5], 2.99 ± 0.52 h. Further, the “total protein half-life in vivo” value worked out at 6.17 ± 0.77 h under setting [6]; 9.18 ± 0.99 h under setting [7]; 4.63 ± 0.16 h under setting [8]; 7.2 ± 0.82 h under setting [9]; 5.39 ± 0.082 h under setting [12]; 12.2 ± 0.37 h under setting [10].

Turning to “MSIKNLPADYLLAAQQGDIDKVKTCLALGVDINTCDRQGKTAITLASLYQQYACVQALIDAGADINKQDHTCLNPFLISCLNDDLTLLRIILPAKPDLNCVTRFGGVGLTPACEKGHLSIVKELLAHTEINVNQTNHVGWTPLLEAIVLNDGGIKQQAIVQLLLEHGASPHLTDKYGKTPLELARERGFEEIAQLLIAAGA”, the “total protein half-life in vivo” value under setting [1] was determined as 5.2 h.

“MNIVDQQTFRDAMSCMGAAVNIITTDGPAGRAGFTASAVCSVTDTPPTLLVCLNRGASVWPAFNENRTLCVNTLSAGQEPLSNLFGGKTPMEHRFAAARWQTGVTGCPQLEEALVSFDCRISQVVSVGTHDILFCAIEAIHRHTTPYGLVWFDRSYHALMRPAC”: the “total protein half-life in vivo” value reads like this: under setting [1], 5.375 ± 0.033 h; under setting [2], 0.819 ± 0.077 h; under setting [11], 0.419 h; under setting [3], 0.406 h; under setting [4], 0.684 ± 0.19 h; under setting [8], 0.452 h. In addition, the “total protein half-life in vivo” value under setting [9] was found to be 1.16 h.

As for “MKLNDSNLFRQQALINGEWLDANNGEAIDVTNPANGDKLGSVPKMGADETRAAIDAANRALPAWRALTAKERATILRNWFNLMMEHQDDLARLMTLEQGKPLAEAKGEISYAASFIEWFAEEGKRIYGDTIPGHQADKRLIVIKQPIGVTAAITPWNFPAAMITRKAGPALAAGCTMVLKPASQTPFSALALAELAIRAGVPAGVFNVVTGSAGAVGNELTSNPLVRKLSFTGSTEIGRQLMEQCAKDIKKVSLELGGNAPFIVFDDADLDKAVEGALASKFRNAGQTCVCANRLYVQDGVYDRFAEKLQQAVSKLHIGDGLDNGVTIGPLIDEKAVAKVEEHIADALEKGARVVCGGKAHERGGNFFQPTILVDVPANAKVSKEETFGPLAPLFRFKDEADVIAQANDTEFGLAAYFYARDLSRVFRVGEALEYGIVGINTGIISNEVAPFGGIKASGLGREGSKYGIEDYLEIKYMCIGL”, the “total protein half-life in vivo” value is 4.773 ± 0.035 h under setting [1]; 4.35 ± 0.32 h under setting [2]; 3.93 ± 0.08 h under setting [11]; 4.251 ± 0.0095 h under setting [3]; 3.87 ± 0.14 h under setting [4]; 2.86 ± 0.26 h under setting [5]. Further, the “total protein half-life in vivo” value was 5.44 ± 0.58 h under setting [6]; 9.938 ± 0.016 h under setting [7]; 3.96 ± 0.29 h under setting [8]; 5.95 ± 0.61 h under setting [9]; 5.72 ± 0.12 h under setting [12]; 11 ± 0.44 h under setting [10].

As for “MEKENITIDPRSSFTPSSSADIPVPPDGLVQRSTRIKRIQTTAMLLLFFAAVINYLDRSSLSVANLTIREELGLSATEIGALLSVFSLAYGIAQLPCGPLLDRKGPRLMLGLGMFFWSLFQAMSGMVHNFTQFVLVRIGMGIGEAPMNPCGVKVINDWFNIKERGRPMGFFNAASTIGVAVSPPILAAMMLVMGWRGMFITIGVLGIFLAIGWYMLYRNREHVELTAVEQAYLNAGSVNARRDPLSFAEWRSLFRNRTMWGMMLGFSGINYTAWLYLAWLPGYLQTAYNLDLKSTGLMAAIPFLFGAAGMLVNGYVTDWLVKGGMAPIKSRKICIIAGMFCSAAFTLIVPQATTSMTAVLLIGMALFCIHFAGTSCWGLIHVAVASRMTASVGSIQNFASFICASFAPIITGFIVDTTHSFRLALIICGCVTAAGALAYIFLVRQPINDPRKD”, under setting [7], the “total protein half-life in vivo” value stood at 5.28 h.

For the sequence “MAKEFGRPQRVAQEMQKEIALILQREIKDPRLGMMTTVSGVEMSRDLAYAKVYVTFLNDKDEDAVKAGIKALQEASGFIRSLLGKAMRLRIVPELTFFYDNSLVEGMRMSNLVTSVVKHDEERRVNPDDSKED [P0A7G2]”, the “total protein half-life in vivo” value by setting is: under setting [2], 4.7644 ± 0.0036 h; under setting [11], 4.43 ± 0.063 h; under setting [3], 5.76 ± 0.31 h; under setting [4], 4.56 ± 0.23 h; under setting [5], 2.87 ± 0.079 h; under setting [6], 5.38 ± 0.84 h. The “total protein half-life in vivo” value under setting [7] was 10.3 ± 0.93 h; the “total protein half-life in vivo” value under setting [8] stood at 4.6 ± 0.22 h; the “total protein half-life in vivo” value under setting [9] is 7.76 ± 0.5 h; the “total protein half-life in vivo” value under setting [12] was 4.66 ± 0.12 h; the “total protein half-life in vivo” value under setting [10] is 8.771 ± 0.013 h.

These data come from the supplement of paper PMC11246515.
